The values that follow come from patent publication US20240117061A1 (WUHAN YZY BIOPHARMA, published 2024).

Test [1] concerns the target T1, recombinant human BCMA-mFc fusion protein (human; mouse).
T1 construct: also called huBCMA-mFc
T1 chain: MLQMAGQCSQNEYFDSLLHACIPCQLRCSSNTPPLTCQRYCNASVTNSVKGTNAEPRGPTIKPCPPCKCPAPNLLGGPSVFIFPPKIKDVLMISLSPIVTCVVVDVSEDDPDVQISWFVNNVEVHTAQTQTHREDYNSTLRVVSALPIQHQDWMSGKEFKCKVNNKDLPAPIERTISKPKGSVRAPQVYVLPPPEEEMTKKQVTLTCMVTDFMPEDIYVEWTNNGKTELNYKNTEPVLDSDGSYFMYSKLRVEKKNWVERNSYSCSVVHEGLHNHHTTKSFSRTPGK
The test is described as follows: indirect ELISA, coated antigen. The procedure:
Procedures: Human, mouse and monkey BCMA antigens were prepared into 0.5 μg/mL coating solutions with PBS buffer. The coating solutions were added to a microplate at 100 μL/well and incubated at 4° C. overnight. The residual coating solution was discarded before 3% BSA was added at 300 μL/well, and the plate was blocked for 3 h at room temperature. The microplate was washed once with PB ST (PBS containing 0.1% of TWEEN 20) at 300 μL/well. The human-mouse chimeric monoclonal antibodies were serially 3-fold diluted from 10 μg/mL to the 9th concentration. The dilutions were added to the microplate at 100 μL/well. After a 1-h incubation at room temperature, the microplate was washed thrice with PB ST at 300 μL/well. The mouse anti-human IgG Fc antibody [HRP] mAb was 25,000-fold diluted with 1% BSA-PBST and added at 100 μL/well. After another 1-h incubation at room temperature, the microplate was washed thrice with PBST at 300 μL/well and dried. The TMB chromogenic solution was added at 100 μL/well. After a 5-min reaction at room temperature, 2 M H₂SO₄ was added at 100 μL/well to terminate the reaction. The microplate was placed on a microplate reader (Molecular Devices, SPECTRA Max plus 384) and the absorbance OD450 value was read at 450 nm wavelength.
(ELISA stands for enzyme-linked immunosorbent assay.)

Test [2] concerns the target T2, recombinant human BCMA-his fusion protein (ACRO Biosystem, Cat. No. BCA-H522y) (human, UniProt Q02223 1-54).
T2 construct: extracellular domain; Bought protein; also called huBCMA-his; hu BCMA-his; not shown: His tag
T2 sequence (looked up): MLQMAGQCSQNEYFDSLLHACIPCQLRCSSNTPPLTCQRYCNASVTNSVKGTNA
Kind of test: competitive ELISA, coated huBCMA-his, competitor APRIL-biotin. The procedure: The 96-well microplate was treated with 100 μL of 0.5 μg/mL huBCMA-his in PBS and incubated overnight at 4° C. The plate was then washed thrice with PBS washing buffer containing 0.1% of Tween-20 and blocked with 300 μL of PBS containing 1% of BSA for 2 h. 100 μL of each BCMA antibody was added to the plate. […] The plate was incubated at 37° C. for 1 h, and unbound secondary antibody was washed with PBS washing buffer containing 0.1% of Tween-20. The TMB chromogenic solution was added at 100 μL/well. After a 5-min reaction at room temperature, 2 M H₂SO₄ was added at 100 μL/well to terminate the reaction. The microplate was placed on a microplate reader (Molecular Devices, SPECTRA Max plus 384) and the absorbance OD450 value was read at 450 nm wavelength.

Test [3] concerns the target T2, recombinant human BCMA-his fusion …. The test is described as follows: SPR (Biacore T200), anti-His capture on CM5, 1:1 fit. In general terms: In SPR one partner is held on a chip, and binding of the other changes the refractive index at the surface.
Test [4] deals with T3, human BCMA on cells (NCI-H929, U266B1, HEK293 huBCMA) (human, UniProt Q02223 1-184).
T3 construct: whole, on cells; also called cell surface BCMA antigen
T3 sequence (looked up): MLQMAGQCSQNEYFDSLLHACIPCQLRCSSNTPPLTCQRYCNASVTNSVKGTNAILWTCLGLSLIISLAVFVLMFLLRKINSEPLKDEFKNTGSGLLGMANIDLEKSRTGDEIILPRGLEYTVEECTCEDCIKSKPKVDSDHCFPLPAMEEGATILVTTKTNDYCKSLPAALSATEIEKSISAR
The test is described as follows: flow cytometry on NCI-H929 cells. The procedure: (§1) Procedures: The cells were resuspended in PBS, and the cell density was adjusted to 2×10^5 cells/well. Human-mouse chimeric monoclonal antibodies were added to a 96-well plate at 50 μL/well and serially 3-fold diluted from 3000 nM to the 9th concentration. The plate was incubated for 1 h at 4° C. 150 μL of precooled PBS containing 1% of FBS was added into the 96-well plate after the co-incubation with the primary antibody was finished. The mixtures were centrifuged at 300×g for 5 min and the supernatants were discarded. The above procedures were repeated once. The fluorescent secondary antibody PE anti-human IgG Fc (Biolegend, 409304) was added at 80 μL/well. The plate was incubated at 4° C. for 30 min. 150 μL of precooled PBS containing 1% of FBS was added into the 96-well plate after the co-incubation with the secondary antibody was finished. The 96-well plate was centrifuged at 300×g for 5 min and the supernatants were discarded. The above procedures were repeated once. The cells were resuspended in 100 μL of PBS containing 1% of FBS and detected on a flow cytometry (BD Accuri™ C6).
A general note: A flow cytometer gives signals particle by particle.

For test [5], the target named is T3, human BCMA on cells (NCI-H929, U266B1, …). The test is described as follows: flow cytometry on U266B1 cells. As for the experimental part: as §1

B1: human-mouse chimeric antibody c-mAb2 (antibody, human IgG1, V domains shown)
VH: QVQLQQSDAELVKPGTSVKISCKVSGYTFTDHTIHWMKQRPEQGLEWIGYIYPRNGNTKYNEKFKGKATLTADKSSSTAYMHLNSLTSEDSAVYFCARYDYDGYFDVWGTGTTVTVSS
VL: DVVMTQTPLSLPVSLGDQASISCRSSQSHVHSDGHTYLHWYLQKPGQSPELLIYKVSNRFSGVPDRFSGSGSGTDFTLKISRVEAEDLGVYFCSQNTHFPWTFGGGTKLEIK
notes: not shown: human IgG1 heavy chain constant region, GenBank No. AK303185.1; human kappa light chain constant region, GenBank No. MG815648.1
In the case of B1, in test [1], the EC50 (usually the midpoint of the concentration-response curve) was 0.427 nM. The IC50 (in general, the concentration that inhibits the measured activity by half) in test [2] is 0.0108 µg/mL. Further, in test [3], the Kd (commonly the free concentration of one partner at which half of the binding sites on the other are occupied at equilibrium, for simple one-to-one binding) came to 1.45 nM; the koff (usually the rate constant with which the complex falls apart) was found to be 0.0679 s⁻¹; the kon (commonly the rate constant with which the complex forms) amounted to 4.68e+07 M⁻¹ s⁻¹. This molecule also returned an EC50 in test [4] of 5.7 nM. In addition, in test [5], the EC50 amounted to 14.7 nM.

B2: human-mouse chimeric antibody c-mAb3 (antibody, human IgG1, V domains shown)
VH: EVQLQQSGPELVKPGASVKILCKASGYTITDYNMDWVKRSHGKSLEWIGNINPHNGGSIYNQKFKGKATLTVDKSSSTAFMELRSLTSEDTAVYYCARGDATLVLDYWGQGTSLTVSS
VL: DIVLTQSPASLAVSLGQRATISCRASKSVSTSGLSYMHWYQQKPGQPPKVLIYLASNLESGVPARFSGSGSGTDFTLNIHPVEEEDAATYYCQHSRELPPTFGAGTKLELK
notes: as for B1
Turning to B2, the EC50 in test [1] was found to be 0.794 nM. Also, the IC50 in test [2] is over 12 µg/mL. Further, in test [3], the Kd was found to be 0.38 nM, the koff was 0.00178 s⁻¹ and the kon was determined as 4.69e+06 M⁻¹ s⁻¹. The molecule further had an EC50 in test [4] of 8.25 nM. In test [5], this molecule gave an EC50 of 81.5 nM.
